Reference: PMC4526632

Molecular target: T1, recombinant mouse N-cadherin-Fc chimera (N-cadherin extracellular domain-Fc fusion protein) (mouse) (UniProt P15116)
T1 sequence: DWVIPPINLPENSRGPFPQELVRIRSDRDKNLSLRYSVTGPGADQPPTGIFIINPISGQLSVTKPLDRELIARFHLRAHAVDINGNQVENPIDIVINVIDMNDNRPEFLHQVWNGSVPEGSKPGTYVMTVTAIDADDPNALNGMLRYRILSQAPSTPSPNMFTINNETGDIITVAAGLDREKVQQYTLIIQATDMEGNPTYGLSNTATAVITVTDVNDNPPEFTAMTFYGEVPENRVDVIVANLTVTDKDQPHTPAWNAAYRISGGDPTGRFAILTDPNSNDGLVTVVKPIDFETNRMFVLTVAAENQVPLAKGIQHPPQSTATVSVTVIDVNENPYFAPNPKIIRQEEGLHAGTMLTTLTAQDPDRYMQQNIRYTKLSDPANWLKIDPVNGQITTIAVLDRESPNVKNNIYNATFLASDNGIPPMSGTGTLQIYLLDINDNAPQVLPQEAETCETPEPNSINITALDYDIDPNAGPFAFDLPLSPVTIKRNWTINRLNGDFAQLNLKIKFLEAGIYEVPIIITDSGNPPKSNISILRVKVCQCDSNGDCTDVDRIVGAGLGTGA

Nanog-GFP negative cells by flow cytometry after plating dissociated iPSC-derived neurospheres on N-cad-Fc for 48 h (30% of cells on gelatin expressed Nanog): > 97%
Substance: cell surface N-cadherin of ESC/iPSC-derived neural progenitor cells (from UniProt P15116 160-906) (natural protein)
